Laboratory results as given in article PMC4579057 (Journal of molecular biology, 2015).

Target: the molecule itself
Experiment: SEC

B1: APOBEC3B carboxy-terminal domain 193-CTD (Met-193 to the carboxy-terminal end) (domain or fragment)
chain: not shown
  stoichiometry N: 2
